# From the supplement of paper PMC12764529
# ± gives the half width of the 95% confidence interval.
# Legend:
# [1] = folding stability dG unfold from trypsin proteolysis; higher = more stable
# Procedure, shortened: (§1)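 Mini-proteins designed to be under 80 residues and free of cysteine were carried in a PA-tagged cDNA display construct and digested with trypsin and with chymotrypsin. Each protease was applied at 11 threefold-diluted concentrations, alongside a no-protease condition, before sequencing. K50 came from Bayesian fitting of the sequencing counts, and unfolding free energy was obtained by comparing it with a sequence-predicted unfolded-state K50 and a shared folded-state K50, for each protease separately or for both together. Designs were retained only if their AlphaFold2 dimer inter-PAE exceeded 15.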
# [2] = folding stability dG unfold from chymotrypsin proteolysis; higher = more stable
# Procedure, shortened: as §1
# [3] = folding stability dG unfold (combined trypsin and chymotrypsin); higher = more stable
# Procedure, shortened: as §1
sequence,measurement,setting,value
SAGGSASSMTTTKKLSTGEKSVVELSTSPSTVTLVTTDPETGTVTVTTYTPSGTGPVATTTTVPAPSAGGSA [r15_137_JUSTAS],folding stability dG unfold,[1],-0.431 ± 0.13 kcal/mol
same,folding stability dG unfold,[2],0.499 ± 0.14 kcal/mol
same,folding stability dG unfold,[3],0.177 ± 0.097 kcal/mol
SAGGSASTYEPEVYTFTGKNKKIKVIVVKPKDNPTAKIIVYDENGNVLATIEFPAENVEKALKELASAGGSA [r15_940_TrMRF],folding stability dG unfold,[1],2.02 ± 0.029 kcal/mol
same,folding stability dG unfold,[2],2.12 ± 0.064 kcal/mol
same,folding stability dG unfold,[3],2.1 ± 0.083 kcal/mol
SAGGSASVKVEITEIKSSNPESSSNKIDIPVKVYDPETGKEVLSVEEIAKKIEEENPGKPVGYVPESAGGSA [r2_27_JUSTAS],folding stability dG unfold,[1],0.293 ± 0.093 kcal/mol
same,folding stability dG unfold,[2],0.0963 ± 0.17 kcal/mol
same,folding stability dG unfold,[3],0.281 ± 0.17 kcal/mol
SAGGSASVLEEAIEEAKKLPPGSVVPLTVTVPTDGEPVVYEILITVHPGENTIEVEKKRKFSPERLSAGGSA [r15_724_JUSTAS],folding stability dG unfold,[1],-0.411 ± 0.14 kcal/mol
same,folding stability dG unfold,[2],0.779 ± 0.1 kcal/mol
same,folding stability dG unfold,[3],0.439 ± 0.095 kcal/mol
SAGGSASVSDVTTTTVTVTVEVTEDPATGLQRLTATHPDLSFERLVPAGTIPADTTVTLDVTVTTGSAGGSA [r15_190_JUSTAS],folding stability dG unfold,[1],0.0934 ± 0.028 kcal/mol
same,folding stability dG unfold,[2],0.452 ± 0.014 kcal/mol
same,folding stability dG unfold,[3],0.322 ± 0.046 kcal/mol
SAGGSASVVLPNATVEELKEAVEKGAKEIVVVSPDPARAATIKAEIEKLHDTPVKVLTPEEAAALESAGGSA [r15_243_JUSTAS],folding stability dG unfold,[1],-0.205 ± 0.037 kcal/mol
same,folding stability dG unfold,[2],1.32 ± 0.035 kcal/mol
same,folding stability dG unfold,[3],0.907 ± 0.055 kcal/mol
SAGGSATIEEIAQEIADNLPPGRKYRAKIYYDGEERTYEFRNPNGFKINITWKNGKIRSIDIEPRPSAGGSA [r15_175_TrROS],folding stability dG unfold,[1],1.63 ± 0.046 kcal/mol
same,folding stability dG unfold,[2],2.01 ± 0.16 kcal/mol
same,folding stability dG unfold,[3],1.94 ± 0.17 kcal/mol
SAGGSATKELVLEIAEEIAPRFQKEGWPIKRVTVKVVRTPDGQVTIPVRIRFPDGKPIMQWNITIPSAGGSA [r15_232_TrROS],folding stability dG unfold,[1],1.03 ± 0.055 kcal/mol
same,folding stability dG unfold,[2],0.00828 ± 0.36 kcal/mol
same,folding stability dG unfold,[3],0.779 ± 0.17 kcal/mol
SAGGSATKVIYGMSVEEIRAAIKAGAKKIIIVADTEEQKKAAAEELEKEYNIKIEVKKIKPKKKKKSAGGSA [r15_243_TrROS_Hall],folding stability dG unfold,[1],0.83 ± 0.065 kcal/mol
same,folding stability dG unfold,[2],2.22 ± 0.039 kcal/mol
same,folding stability dG unfold,[3],1.89 ± 0.17 kcal/mol
SAGGSATPEEIAKKFFENHPELEPVEVKLEKFKIPGLKIWVVKVEITLKFKDNSKKKIPVVAVFPVSAGGSA [r15_266_TrMRF],folding stability dG unfold,[1],2.02 ± 0.066 kcal/mol
same,folding stability dG unfold,[2],3.01 ± 0.039 kcal/mol
same,folding stability dG unfold,[3],2.72 ± 0.074 kcal/mol
SAGGSATVTVTLVVRDPATGELTTVTATVTLEAAPAPVSVSLSLSLSRDPNGNLSLSLSVSVTVEGSAGGSA [r2_326_TrROS_Hall],folding stability dG unfold,[1],4.02 ± 0.094 kcal/mol
same,folding stability dG unfold,[2],5.93 ± 0.13 kcal/mol
same,folding stability dG unfold,[3],> 6 kcal/mol
SAGGSAVEFTEPGAELLSEEKLPDGTVVKRVLLPDGSVLLLLPDNSIKTRSLSNPNTSLSEWDPELSAGGSA [r15_692_JUSTAS],folding stability dG unfold,[1],0.613 ± 0.17 kcal/mol
same,folding stability dG unfold,[2],0.332 ± 0.32 kcal/mol
same,folding stability dG unfold,[3],0.491 ± 0.26 kcal/mol
SAGGSAVRIKVWPPNGKEQWIPIPSSMTPSTVQEMAENLADDWQEQNGNKNVKVEVDPDNGWIRIRSAGGSA [r15_33_TrROS],folding stability dG unfold,[1],-1.02 ± 0.3 kcal/mol
same,folding stability dG unfold,[2],0.197 ± 0.084 kcal/mol
same,folding stability dG unfold,[3],-0.0158 ± 0.066 kcal/mol
SAGGSAVTITVDDFEDIEDAEITLTRPDGRPVVARVRVEKGEGAPRVTVLWREPGSGRYRVETFPLSAGGSA [r15_1006_TrMRF],folding stability dG unfold,[1],0.925 ± 0.074 kcal/mol
same,folding stability dG unfold,[2],1.49 ± 0.1 kcal/mol
same,folding stability dG unfold,[3],1.28 ± 0.07 kcal/mol
SAGGSAWIRINSPEMVEAFAKELKDEGWKLKDVDVQRDPNNGNVWFEIPIEHPNNGKKRELEIWFRSAGGSA [r15_123_TrROS],folding stability dG unfold,[1],0.368 ± 0.077 kcal/mol
same,folding stability dG unfold,[2],-0.0873 ± 0.2 kcal/mol
same,folding stability dG unfold,[3],0.141 ± 0.11 kcal/mol
SAGGSAWIWITYQFPPGGTLEQAKEQIVNYLQRLFGWKIEIPDIEVEREGNNWTVTFPIKIEPLPGSAGGSA [r15_105_TrROS],folding stability dG unfold,[1],3.7 ± 0.16 kcal/mol
same,folding stability dG unfold,[2],4.4 ± 0.098 kcal/mol
same,folding stability dG unfold,[3],4.18 ± 0.24 kcal/mol
SAGGSDKEEKEKEIDIRIVQVPWDDARELAEESDDPVIFMLPDGHIHIFKGDGKVEPFPIPDPEEFSAGGSA [r2_34_TrROS],folding stability dG unfold,[1],-0.288 ± 0.071 kcal/mol
same,folding stability dG unfold,[2],0.199 ± 0.15 kcal/mol
same,folding stability dG unfold,[3],0.0224 ± 0.12 kcal/mol
SAGGSDVEIEVFENAIIITIPLDLDNGKGETVEVRIIAPFTPDGRPIFRIEVINPDSDEVVTFTFPSAGGSA [r2_484_TrMRF],folding stability dG unfold,[1],2.66 ± 0.081 kcal/mol
same,folding stability dG unfold,[2],2.766 ± 0.017 kcal/mol
same,folding stability dG unfold,[3],2.71 ± 0.068 kcal/mol
